We go through two substances from publication PMC8922439.

For experiment [1], the target named is mRNA-expressed CH848 10.17DT DS SOSIP trimer (HIV-1 (CH848 10.17)). Description: SEC.
Experiment [2] has as its target mRNA-expressed CH848 10.17DT SOSIPv4.1 trimer (HIV-1 (CH848 10.17)). Description: SEC.

As usually defined, the stoichiometry N is the number of molecules, sites or subunits per partner or assembly. “mRNA-expressed CH848 10.17DT DS SOSIP trimer (domain or fragment)” gave a stoichiometry N in experiment [1] of 3.
On to “mRNA-expressed CH848 10.17DT SOSIPv4.1 trimer (domain or fragment)”, for which the stoichiometry N in experiment [2] came to 3.
